Source: US20260234660A1 (Regeneron, published 2026)
One block for each binder: values may come before it.

Key:
[1] = target: T1, human CACNG1, cell surface-expressed (human, UniProt Q06432 1-222); assay: cell-based or functional assay
[2] = target: T1, human CACNG1, cell surface-expressed; assay: cell-based or functional assay; remark: listed apart in the source
[3] = target: T1, human CACNG1, cell surface-expressed; assay: cell-based or functional assay; remark: listed apart in the source
[4] = target: T2, nanodisc embedded human CACNG1 expressed with a C-terminal PADRE-Flag-His tag (human, UniProt Q06432 1-222); assay: SPR (Biacore T200), 25 C, anti-His-captured human CACNG1 nanodisc, antibody as analyte
T2 construct: Membrane protein (gamma-1 subunit of the skeletal muscle L-type calcium channel) in a nanodisc; also called human CACNG1 nanodisc; CACNG1 nanodisc; not shown: C-terminal PADRE-Flag-His tag
Protocol: Equilibrium dissociation constants (KD values) for nanodisc embedded human CACNG1 expressed with a C-terminal PADRE-Flag-His tag (human CACNG1 nanodisc) binding to purified anti-hCACNG1 antibodies were determined using a real-time surface plasmon resonance biosensor technology with a Biacore T200 instrument. The CM5 Biacore sensor surface was derivatized by amine coupling with a monoclonal mouse anti-His antibody (Cytiva; Marlborough, MA). All Biacore binding studies were performed in a buffer composed of 0.01M HEPES, 0.15M NaCl, 1 mM CaCl₂), 0.5 mM MgCl₂, pH 7.4 (HBS-N++ running buffer). Different concentrations of anti-hCACNG1 antibodies (ranging from 300 nM to 12 nM in 5-fold serial dilutions) prepared in HBS-N++ running buffer were injected over the captured human CACNG1 nanodisc at a flow rate of 30 μL/minute. Antibody association was monitored for 2 minutes while dissociation was monitored in HBS-N++ running buffer for 5 minutes. At the end of each cycle, the human CACNG1 nanodisc capture surface was regenerated using three 10 second injections of 10 mM Gly pH1.5. All binding kinetics experiments were performed at 25° C.

[5] = target: T3, mouse CACNG1 on myofibers of wildtype mice (mouse, UniProt O70578 1-223); assay: immunofluorescence on live single myofibers ex vivo (wildtype mice), fluorescent secondary antibody, confocal imaging
T3 construct: whole, on cells; Target inferred from the cells: the wildtype myofibers carry mouse CACNG1, which the CACNG1^Hu/Hu mice have replaced by human CACNG1; also called wildtype (WT) myofibers
T3 sequence (looked up): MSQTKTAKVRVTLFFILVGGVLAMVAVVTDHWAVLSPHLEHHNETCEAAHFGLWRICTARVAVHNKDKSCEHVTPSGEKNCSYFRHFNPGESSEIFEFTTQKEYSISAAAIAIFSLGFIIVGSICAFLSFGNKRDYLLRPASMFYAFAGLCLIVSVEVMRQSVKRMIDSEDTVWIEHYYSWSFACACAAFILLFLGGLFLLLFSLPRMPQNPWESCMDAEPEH
Protocol: Single myofibers were isolated from either wildtype mice, mice that were homozygous for the deletion of CACNG1 (referred to as CACNG1 knockout mice), or mice that were homozygous for the expression of human CACNG1 in place of mouse CACNG1 (referred to as CACNG1^{Hu/Hu}). The gastrocnemius muscle was removed, collagenase digested, and single myofibers were isolated, washed, and incubated overnight at 37° C. at 5% C02, in DMEM+10% horse serum. […] Myofibers were then washed twice in DMEM+10% horse serum, and subsequently incubated with 10 ug/mL of fluorescent-conjugated secondary antibodies for 30 minutes, washed twice in DMEM+10% horse serum, and then fixed with 4% paraformaldehyde (PFA) for 15 minutes at room temperature. Single fibers were then washed twice with PBS, stained with Hoechst for 5 minutes, washed once more with PBS, then transferred to microscope slides, coverslipped, and imaged using a Zeiss LSM 710 confocal microscope.

T1 sequence (Q06432 whole entry): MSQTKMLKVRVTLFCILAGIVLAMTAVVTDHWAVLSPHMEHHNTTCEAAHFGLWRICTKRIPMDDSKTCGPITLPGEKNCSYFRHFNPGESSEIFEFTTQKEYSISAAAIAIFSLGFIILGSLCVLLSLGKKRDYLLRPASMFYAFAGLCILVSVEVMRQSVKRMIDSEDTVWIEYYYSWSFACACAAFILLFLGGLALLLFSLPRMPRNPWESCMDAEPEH
T2 sequence (Q06432 whole entry): as above

- EC50; androgen receptor luciferase reporter (RLU), hCACNG1.AR.Luc LNCaP cells, 48 hours [1]: 6.49 nM
- EC50; androgen receptor luciferase reporter (RLU), hCACNG1.AR.Luc LNCaP cells, 24 hours [2]: 19 nM
- EC50; androgen receptor luciferase reporter (RLU), hCACNG1.AR.Luc LNCaP cells, 72 hours [3]: 7.79 nM
B1: REGN5972-M3004 (antibody, V domains shown)
VH: QVQLVESGGGVVQPGRSLRLSCTASGFTFRSYGMHWVRQAPGKGLEWVSVIWIDGNNIYYADSVKGRFTISRDNSKNTLYLQMDSLRAEDTAVYYCARRLAITSAAPFDYWGQGTLVTVSS
VL: not shown
modifications: N180Q in the constant region (heading of the 2nd table, row 736); linker-payload M3004 (VC-PAB linker, DHT)

- mAb Bound at 300 nM (RU) [4]: 14 RU
- binding result [5]: no binding (tested: 100 nM)
B2: H4H31265P2/REGN5972 (antibody, V domains shown)
VH: B1 VH
VL: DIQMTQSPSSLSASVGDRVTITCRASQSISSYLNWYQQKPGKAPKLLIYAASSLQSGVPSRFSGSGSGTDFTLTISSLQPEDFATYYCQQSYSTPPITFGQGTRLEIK
notes: also called antibody designation 7
